Experimental findings from the supplement of paper PMC11246515 are described below.

± gives the standard deviation of the averaged measurements.

The series in a line: total protein half-life in vivo (active degradation + dilution); higher = more stable protein.
Setting [1] is: E. coli NCM3722 delta-clpP delta-lon delta-hslV, growth: N-lim chemostat, doubling time 6 h.
The mark [2] stands for this setting: E. coli NCM3722 delta-clpP, growth: N-lim chemostat, doubling time 6 h.
The mark [3] stands for this setting: E. coli NCM3722 delta-hslV, growth: N-lim chemostat, doubling time 6 h.
Where [4] appears, read: E. coli NCM3722 delta-lon, growth: N-lim chemostat, doubling time 6 h.
[5] abbreviates: E. coli NCM3722 delta-smpB, growth: N-lim chemostat, doubling time 6 h.
The mark [6] stands for this setting: wild type E. coli NCM3722, growth: C-lim chemostat, doubling time 3 h.
[7] abbreviates: wild type E. coli NCM3722, growth: C-lim chemostat, doubling time 6 h.
Setting [8] is: wild type E. coli NCM3722, growth: C-lim chemostat, doubling time 12 h.
Where [9] appears, read: wild type E. coli NCM3722, growth: N-lim chemostat, doubling time 6 h.
Where [10] appears, read: wild type E. coli NCM3722, growth: N-lim chemostat, doubling time 12 h.
The mark [11] stands for this setting: wild type E. coli NCM3722, growth: P-lim chemostat, doubling time 6 h.
The mark [12] stands for this setting: wild type E. coli NCM3722, growth: P-lim chemostat, doubling time 12 h.

For the sequence “MSSKVEQLRAQLNERILVLDGGMGTMIQSYRLNEADFRGERFADWPCDLKGNNDLLVLSKPEVIAAIHNAYFEAGADIIETNTFNSTTIAMADYQMESLSAEINFAAAKLARACADEWTARTPEKPRYVAGVLGPTNRTASISPDVNDPAFRNITFDGLVAAYRESTKALVEGGADLILIETVFDTLNAKAAVFAVKTEFEALGVELPIMISGTITDASGRTLSGQTTEAFYNSLRHAEALTFGLNCALGPDELRQYVQELSRIAECYVTAHPNAGLPNAFGEYDLDADTMAKQIREWAQAGFLNIVGGCCGTTPQHIAAMSRAVEGLAPRKLPEIPVACRLSGLEPLNIGEDSLFVNVGERTNVTGSAKFKRLIKEEKYSEALDVARQQVENGAQIIDINMDEGMLDAEAAMVRFLNLIAGEPDIARVPIMIDSSKWDVIEKGLKCIQGKGIVNSISMKEGVDAFIHHAKLLRRYGAAVVVMAFDEQGQADTRARKIEICRRAYKILTEEVGFPPEDIIFDPNIFAVATGIEEHNNYAQDFIGACEDIKRELPHALISGGVSNVSFSFRGNDPVREAIHAVFLYYAIRNGMDMGIVNAGQLAIYDDLPAELRDAVEDVILNRRDDGTERLLELAEKYRGSKTDDTANAQQAEWRSWEVNKRLEYSLVKGITEFIEQDTEEARQQATRPIEVIEGPLMDGMNVVGDLFGEGKMFLPQVVKSARVMKQAVAYLEPFIEASKEQGKTNGKMVIATVKGDVHDIGKNIVGVVLQCNNYEIVDLGVMVPAEKILRTAKEVNADLIGLSGLITPSLDEMVNVAKEMERQGFTIPLLIGGATTSKAHTAVKIEQNYSGPTVYVQNASRTVGVVAALLSDTQRDDFVARTRKEYETVRIQHGRKKPRTPPVTLEAARDNDFAFDWQAYTPPVAHRLGVQEVEASIETLRNYIDWTPFFMTWSLAGKYPRILEDEVVGVEAQRLFKDANDMLDKLSAEKTLNPRGVVGLFPANRVGDDIEIYRDETRTHVINVSHHLRQQTEKTGFANYCLADFVAPKLSGKADYIGAFAVTGGLEEDALADAFEAQHDDYNKIMVKALADRLAEAFAEYLHERVRKVYWGYAPNENLSNEELIRENYQGIRPAPGYPACPEHTEKATIWELLEVEKHTGMKLTESFAMWPGASVSGWYFSHPDSKYYAVAQIQRDQVEDYARRKGMSVTEVERWLAPNLGYDAD”, the “total protein half-life in vivo” value reads like this: under setting [1], 5.12 ± 0.36 h; under setting [2], 4.3 ± 0.33 h; under setting [3], 3.71 ± 0.047 h; under setting [4], 3.96 ± 0.33 h; under setting [5], 3.31 ± 0.087 h; under setting [6], 2.73 ± 0.051 h. Besides, the “total protein half-life in vivo” value amounted to 5.05 ± 0.14 h under setting [7]; 8.09 ± 0.26 h under setting [8]; 3.489 ± 0.028 h under setting [9]; 5.48 ± 0.14 h under setting [10]; 5.43 ± 0.51 h under setting [11]; 9.81 ± 0.4 h under setting [12].
As to “MYKTIIMPVDVFEMELSDKAVRHAEFLAQDDGVIHLLHVLPGSASLSLHRFAADVRRFEEHLQHEAQERLQTMVSHFTIDPSRIKQHVRFGSVRDEVNELAEELGADVVVIGSRNPSISTHLLGSNASSVIRHANLPVLVVR”, the “total protein half-life in vivo” value is, setting by setting: under setting [3], 4.48 h; under setting [4], 4.71 ± 0.33 h; under setting [5], 4.18 ± 0.48 h; under setting [6], 3.06 ± 0.038 h; under setting [7], 6.27 h; under setting [8], 12 ± 1.8 h. In addition, the “total protein half-life in vivo” value reads like this: under setting [9], 3.99 ± 0.43 h; under setting [10], 6.48 ± 0.34 h; under setting [11], 6.06 ± 0.33 h; under setting [12], 10.7 h.
Turning to “MSTRTPSSSSSRLMLTIGLCFLVALMEGLDLQAAGIAAGGIAQAFALDKMQMGWIFSAGILGLLPGALVGGMLADRYGRKRILIGSVALFGLFSLATAIAWDFPSLVFARLMTGVGLGAALPNLIALTSEAAGPRFRGTAVSLMYCGVPIGAALAATLGFAGANLAWQTVFWVGGVVPLILVPLLMRWLPESAVFAGEKQSAPPLRALFAPETATATLLLWLCYFFTLLVVYMLINWLPLLLVEQGFQPSQAAGVMFALQMGAASGTLMLGALMDKLRPVTMSLLIYSGMLASLLALGTVSSFNGMLLAGFVAGLFATGGQSVLYALAPLFYSSQIRATGVGTAVAVGRLGAMSGPLLAGKMLALGTGTVGVMAASAPGILVAGLAVFILMSRRSRIQPCADA”, the “total protein half-life in vivo” value under setting [8] amounted to 5.24 h.
Regarding “MKTIFTVGAVVLATCLLSGCVNEQKVNQLASNVQTLNAKIARLEQDMKALRPQIYAAKSEANRANTRLDAQDYFDCLRCLRMYAE”, the “total protein half-life in vivo” value is, setting by setting: under setting [1], 7.01 h; under setting [5], 5.17 h; under setting [8], 6.54 h; under setting [12], over 16 h.
In the case of “MAISIKTPEDIEKMRVAGRLAAEVLEMIEPYVKPGVSTGELDRICNDYIVNEQHAVSACLGYHGYPKSVCISINEVVCHGIPDDAKLLKDGDIVNIDVTVIKDGFHGDTSKMFIVGKPTIMGERLCRITQESLYLALRMVKPGINLREIGAAIQKFVEAEGFSVVREYCGHGIGRGFHEEPQVLHYDSRETNVVLKPGMTFTIEPMVNAGKKEIRTMKDGWTVKTKDRSLSAQYEHTIVVTDNGCEILTLRKDDTIPAIISHDE [P0AE18]”, the “total protein half-life in vivo” value by setting is: under setting [1], 5.22 ± 1 h; under setting [2], 4.545 ± 0.041 h; under setting [3], 4.71 ± 0.14 h; under setting [4], 5.3 ± 0.74 h; under setting [5], 4.36 ± 0.17 h; under setting [6], 3.53 ± 0.17 h. Further, the “total protein half-life in vivo” value reads like this: under setting [7], 5.52 ± 0.18 h; under setting [8], 10.4 ± 0.64 h; under setting [9], 4.42 ± 0.58 h; under setting [10], 6.93 ± 0.49 h; under setting [11], 6.04 ± 0.15 h; under setting [12], 12.19 ± 0.095 h.
On to “MKKTAIAIAVALAGFATVAQAAPKDNTWYTGAKLGWSQYHDTGFINNNGPTHENQLGAGAFGGYQVNPYVGFEMGYDWLGRMPYKGSVENGAYKAQGVQLTAKLGYPITDDLDIYTRLGGMVWRADTKSNVYGKNHDTGVSPVFAGGVEYAITPEIATRLEYQWTNNIGDAHTIGTRPDNGMLSLGVSYRFGQGEAAPVVAPAPAPAPEVQTKHFTLKSDVLFNFNKATLKPEGQAALDQLYSQLSNLDPKDGSVVVLGYTDRIGSDAYNQGLSERRAQSVVDYLISKGIPADKISARGMGESNPVTGNTCDNVKQRAALIDCLAPDRRVEIEVKGIKDVVTQPQA [P0A910]”, for which the “total protein half-life in vivo” value reads like this: under setting [1], 6.64 ± 0.48 h; under setting [2], 6.96 ± 0.27 h; under setting [3], 6.86 ± 0.49 h; under setting [4], 7.032 ± 0.055 h; under setting [5], 5.84 ± 0.27 h; under setting [6], 3.41 ± 0.11 h. Moreover, the “total protein half-life in vivo” value worked out at 6.7 ± 0.097 h under setting [7]; 13 ± 1.5 h under setting [8]; 6.3 ± 0.41 h under setting [9]; 13.6 ± 0.81 h under setting [10]; 6.224 ± 0.024 h under setting [11]; 15 ± 0.76 h under setting [12].
For the sequence “MLPSQSPAIFTVSRLNQTVRLLLEHEMGQVWISGEISNFTQPASGHWYFTLKDDTAQVRCAMFRNSNRRVTFRPQHGQQVLVRANITLYEPRGDYQIIVESMQPAGEGLLQQKYEQLKAKLQAEGLFDQQYKKPLPSPAHCVGVITSKTGAALHDILHVLKRRDPSLPVIIYPAAVQGDDAPGQIVRAIELANQRNECDVLIVGRGGGSLEDLWSFNDERVARAIFTSRIPVVSAVGHETDVTIADFVADLRAPTPSAAAEVVSRNQQELLRQVQSTRQRLEMAMDYYLANRTRRFTQIHHRLQQQHPQLRLARQQTMLERLQKRMSFALENQLKRTGQQQQRLTQRLNQQNPQPKIHRAQTRIQQLEYRLAETLRAQLSATRERFGNAVTHLEAVSPLSTLARGYSVTTATDGNVLKKVKQVKAGEMLTTRLEDGWIESEVKNIQPVKKSRKKVH”, the “total protein half-life in vivo” value stood at 6.078 ± 0.013 h under setting [1]; 5.772 ± 0.023 h under setting [2]; 6.48 ± 0.87 h under setting [3]; 5.98 ± 0.4 h under setting [4]; 5.71 ± 0.13 h under setting [5]; 3.32 ± 0.21 h under setting [6]. In addition, the “total protein half-life in vivo” value by setting is: under setting [7], 6.11 ± 0.37 h; under setting [8], 11.39 ± 0.059 h; under setting [9], 5.89 ± 0.5 h; under setting [10], 12.33 ± 0.035 h; under setting [11], 6.05 ± 0.67 h; under setting [12], 13.1 ± 2.8 h.
As to “MDQFECINVADAHQKLQEKEAVLVDIRDPQSFAMGHAVQAFHLTNDTLGAFMRDNDFDTPVMVMCYHGNSSKGAAQYLLQQGYDVVYSIDGGFEAWQRQFPAEVAYGA [P0A6V5]”, the “total protein half-life in vivo” value under setting [9] stood at 1.91 h.
